Measured values as given in patent publication US20260193323.

Key:
[1] = tested on: T1, LEKTI Domain 6 (ct His6 tag)
T1 sequence: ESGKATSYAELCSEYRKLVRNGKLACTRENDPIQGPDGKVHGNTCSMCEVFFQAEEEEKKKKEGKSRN

[2] = tested on: T2, recombinantly produced LEKTI Domain 6
T2 sequence: T1 sequence

trypsin
trypsin activity (L-BAPNA substrate, 405 nm) [1]: recombinantly produced LEKTI Domain 6 (ct His6 tag) inhibits trypsin in vitro compared to LEKTI domains 10-15
Trypsin activity (rate of change in the absorbance at 405 nm, L-BAPNA cleavage, per minute) [2]: LEKTI Domain 6 inhibited trypsin activity in vitro
